Experiments:
[1] = Morita, 1977; cited from earlier work
[2] = Fluorogenic substrate microarray, aerosol deposition of enzyme: boc-VLK-MCA; format: biochemical; settings: pure plasmin 1 μM deposited on the array
[3] = tested on: fluorogenic substrates on the array; assay: Microarray assay of diluted recalcified citrated plasma with added plasmin; format: biochemical, human
Procedure: (§1) Well characterized for over 30 years, serine proteases of the coagulation pathway in plasma were selected as a system in which to monitor the delivery of complex enzyme fluids to the microassay. Fluorogenic substrates in DMSO/glycerol were assayed to a glass slide.
The microarray detected the modest activation of the coagulation pathway in recalcified diluted plasma due to low level factor Xa and thrombin activity (Butenas, 1997; Rand, 1996). Since corn trypsin inhibitor was not present to inhibit factor XIIa (Rand, 1996), moderate activation of the contact system and kallikrein generation was detected by conversion of the kallikrein substrate.
[…] This plasmin activity was detected by a strong signal in the plasmin substrate spot. […] Plasmin is also a potent activator of factor XU to factor XUa which can in turn convert prekallikrein to kallilkrein.

[4] = Fluorogenic substrate microarray: plasmin on thrombin and kallikrein substrates; format: biochemical; settings: pure plasmin 1 μM
Procedure: as §1
(§2) After spray application, thrombin caused a 65-fold increase in fluorescence activity after conversion of the boc-VPR-MCA substrate. […] Aerosol deposition of pure tPA (10 μM) to a sensing array caused significant cleavage of the tPA, thrombin and Xa substrates, resulting in fluorescence that was 18- to 20-fold above background.

[5] = Fluorogenic substrate microarray: tPA on tPA, thrombin and Xa substrates; format: biochemical; settings: aerosol deposition of pure tPA 10 μM
Procedure: as §1, §2

B1: plasmin: pure plasmin, serine protease deposited on the array (protein, UniProt P00747 20-580; P00747 581-810, looked up)
Plasmin heavy chain A: EPLDDYVNTQGASLFSVTKKQLGAGSIEECAAKCEEDEEFTCRAFQYHSKEQQCVIMAENRKSSIIIRMRDVVLFEKKVYLSECKTGNGKNYRGTMSKTKNGITCQKWSSTSPHRPRFSPATHPSEGLEENYCRNPDNDPQGPWCYTTDPEKRYDYCDILECEEECMHCSGENYDGKISKTMSGLECQAWDSQSPHAHGYIPSKFPNKNLKKNYCRNPDRELRPWCFTTDPNKRWELCDIPRCTTPPPSSGPTYQCLKGTGENYRGNVAVTVSGHTCQHWSAQTPHTHNRTPENFPCKNLDENYCRNPDGKRAPWCHTTNSQVRWEYCKIPSCDSSPVSTEQLAPTAPPELTPVVQDCYHGDGQSYRGTSSTTTTGKKCQSWSSMTPHRHQKTPENYPNAGLTMNYCRNPDADKGPWCFTTDPSVRWEYCNLKKCSGTEASVVAPPPVVLLPDVETPSEEDCMFGNGKGYRGKRATTVTGTPCQDWAAQEPHRHSIFTPETNPRAGLEKNYCRNPDGDVGGPWCYTTNPRKLYDYCDVPQCAAPSFDCGKPQVEPKKCPGR
Plasmin light chain B: VVGGCVAHPHSWPWQVSLRTRFGMHFCGGTLISPEWVLTAAHCLEKSPRPSSYKVILGAHQEVNLEPHVQEIEVSRLFLEPTRKDIALLKLSSPAVITDKVIPACLPSPNYVVADRTECFITGWGETQGTFGAGLLKEAQLPVIENKVCNRYEFLNGRVQSTELCAGHLAGGTDSCQGDSGGPLVCFEKDKYILQGVTSWGLGCARPNKPGVYVRVSRFVTWIEGVMRNN
modifications: plasmin
notes: pure plasmin, serine protease deposited on the array
For B1, the “reported activity on boc-VPR-MCA and Z-FR-MCA” value [1] is listed as “activity”, the “reported activity on tPA and factor Xa substrates” value [1] is listed as “no detectable activity” and the “signal for the boc-VLK-MCA substrate above background” value [2] is listed as 25 fold. For the same molecule, the “signal in the plasmin substrate spot” value ([3]; plasmin 0.43 μM final concentration added to diluted recalcified citrated plasma) was “strong signal”, the “cleavage of substrates on the array” value ([3]; plasmin 2.14-1 μM final concentration added to plasma) was “significant cleavage of each substrate” and the “activity on the thrombin and kallikrein substrates” value [4] was “detectable activity”.

B2: tPA: pure tPA delivered by aerosol deposition to a sensing array (protein, UniProt P00750 36-562, looked up)
Tissue-type plasminogen …: SYQVICRDEKTQMIYQQHQSWLRPVLRSNRVEYCWCNSGRAQCHSVPVKSCSEPRCFNGGTCQQALYFSDFVCQCPEGFAGKCCEIDTRATCYEDQGISYRGTWSTAESGAECTNWNSSALAQKPYSGRRPDAIRLGLGNHNYCRNPDRDSKPWCYVFKAGKYSSEFCSTPACSEGNSDCYFGNGSAYRGTHSLTESGASCLPWNSMILIGKVYTAQNPSAQALGLGKHNYCRNPDGDAKPWCHVLKNRRLTWEYCDVPSCSTCGLRQYSQPQFRIKGGLFADIASHPWQAAIFAKHRRSPGERFLCGGILISSCWILSAAHCFQERFPPHHLTVILGRTYRVVPGEEEQKFEVEKYIVHKEFDDDTYDNDIALLQLKSDSSRCAQESSVVRTVCLPPADLQLPDWTECELSGYGKHEALSPFYSERLKEAHVRLYPSSRCTSQHLLNRTVTDNMLCAGDTRSGGPQANLHDACQGDSGGPLVCLNDGRMTLVGIISWGLGCGQKDVPGVYTKVTNYLDWIRDNMRP
In the case of B2, the “fluorescence above background from cleavage of the tPA, thrombin and Xa substrates” value [5] is reported as 18- to 20 fold.
